Experimental data reported in publication PMC6749138.

Legend:
[1] = target: HA-tagged HIV-1 Nef E63A/F68A double mutant (HIV-1 (NL4-3)) (UniProt P03406)
[2] = target: HA-tagged HIV-1 Nef E63A (HIV-1 (NL4-3)) (UniProt P03406)
[3] = target: HA-tagged HIV-1 Nef F68A (HIV-1 (NL4-3)) (UniProt P03406)

Q: Which results are given for “adaptor protein 1 (AP-1) complex (from UniProt Q9BXS5 1-423)”?
A: ratio of the GFP+ MHC-I- population of HEK293T cells transfected with Nef (flow cytometry; wild type 34.9%) [1]: 19.2%; ratio of the GFP+ MHC-I- population of HEK293T cells transfected with Nef (flow cytometry; wild type 34.9%) [2]: 25.7%; ratio of the GFP+ MHC-I- population of HEK293T cells transfected with Nef (flow cytometry; wild type 34.9%) [3]: 23.2%
